# Molecular target: HLA-A*02:01 (Homo sapiens, UniProt P04439, D140Y/D185E/D98H/E176V/E277Q/G131W/G231S/I119V/I121R/I166T/I218V/L300P/L318F/N151K/N90K/P208A/P217A/Q86G/Q94H/R138H/R169H/T345S)
# Assay: MHC binding assay (UV-ligand exchange, ELISA of exchange yield)
# Settings: binding to HLA-A*02:01, UV-ligand exchange
# How it was run: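 ELISA of β2m retained on streptavidin-captured, 100-fold diluted complexes (HRP anti-β2m, TMB, 450 nm) gives the yield. Complexes come from UV-triggered exchange of a photocleavable placeholder peptide for the candidate, which must bind to stop complex dissociation.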
row,Substance,"Peptide exchange (MHC class I binding score, peptide exchange yield)"
1,460 (AMLEKNYKL; listed as Homo sapiens) [compound 460],“++++” (≥75% = ++++)
2,461 (VMFRTPLASV; listed as Homo sapiens) [compound 461],“++” (≥20% = ++)
3,462 (KLAKQPETV; listed as Homo sapiens) [compound 462],“+++” (≥50 = +++)
4,463 (SLVESHLSDQLTL; listed as Homo sapiens) [compound 463],“+++” (≥50 = +++)
5,464 (ALNDCIYSV; listed as Homo sapiens) [compound 464],“+++” (≥50 = +++)
6,465 (QLCDLNAEL; listed as Homo sapiens) [compound 465],“+++” (≥50 = +++)
7,466 (VLIANLEKL; listed as Homo sapiens) [compound 466],“++++” (≥75% = ++++)
8,467 (FLAKDFNFL; listed as Homo sapiens) [compound 467],“+++” (≥50 = +++)
9,468 (YLRSVGDGETV; listed as Homo sapiens) [compound 468],“+++” (≥50 = +++)
10,469 (YLASDEITTV; listed as Homo sapiens) [compound 469],“+++” (≥50 = +++)
11,471 (YLYNNMIAKI; listed as Homo sapiens) [compound 471],“+++” (≥50 = +++)
12,472 (KLLEVSDDPQV; listed as Homo sapiens) [compound 472],“+++” (≥50 = +++)
13,473 (AMATESILHFA; listed as Homo sapiens) [compound 473],“+++” (≥50 = +++)
14,474 (YLDPALELGPRNV; listed as Homo sapiens) [compound 474],“+++” (≥50 = +++)
15,475 (LLLNEEALAQI; listed as Homo sapiens) [compound 475],“+++” (≥50 = +++)
16,476 (ALMERTGYSMV; listed as Homo sapiens) [compound 476],“+++” (≥50 = +++)
17,477 (ALLPASGQIAL; listed as Homo sapiens) [compound 477],“+++” (≥50 = +++)
18,478 (YLLHEKLNL; listed as Homo sapiens) [compound 478],“+++” (≥50 = +++)
19,479 (SLFGNSGILENV; listed as Homo sapiens) [compound 479],“+++” (≥50 = +++)
20,480 (ALLEDSCHYL; listed as Homo sapiens) [compound 480],“+++” (≥50 = +++)
21,481 (GLIEDYEALL; listed as Homo sapiens) [compound 481],“+++” (≥50 = +++)
22,484 (SLIEKVTQL; listed as Homo sapiens) [compound 484],“+++” (≥50 = +++)

row,Substance,"Peptide exchange (MHC class I binding score, peptide exchange yield)"
1,485 (NVPDSFNEV; listed as Homo sapiens) [compound 485],“+++” (≥50 = +++)
2,486 (AVMESIQGV; listed as Homo sapiens) [compound 486],“+++” (≥50 = +++)
3,487 (LLINSVFHV; listed as Homo sapiens) [compound 487],“+++” (≥50 = +++)
4,488 (FLAEDPKVTL; listed as Homo sapiens) [compound 488],“+++” (≥50 = +++)
5,489 (KMWEELPEVV; listed as Homo sapiens) [compound 489],“+++” (≥50 = +++)
6,490 (FLLQHVQEL; listed as Homo sapiens) [compound 490],“+++” (≥50 = +++)
7,491 (GLNDRSDAV; listed as Homo sapiens) [compound 491],“++” (≥20% = ++)
8,492 (SLFDGFADGLGV; listed as Homo sapiens) [compound 492],“+++” (≥50 = +++)
9,493 (GLLGEKTQDLIGV; listed as Homo sapiens) [compound 493],“+++” (≥50 = +++)
10,494 (ALQPEPIKV; listed as Homo sapiens) [compound 494],“++” (≥20% = ++)
11,495 (FIFSEKPVFV; listed as Homo sapiens) [compound 495],“+++” (≥50 = +++)
12,496 (FLVEKQPPQV; listed as Homo sapiens) [compound 496],“+++” (≥50 = +++)
13,497 (GLLEKLTAI; listed as Homo sapiens) [compound 497],“+++” (≥50 = +++)
14,498 (KLWTGGLDNTV; listed as Homo sapiens) [compound 498],“+++” (≥50 = +++)
15,499 (KIFDIDEAEEGV; listed as Homo sapiens) [compound 499],“++” (≥20% = ++)
16,500 (SLMEDQVLQL; listed as Homo sapiens) [compound 500],“+++” (≥50 = +++)
17,501 (LLDPNVKSIFV; listed as Homo sapiens) [compound 501],“+++” (≥50 = +++)
18,502 (RLLAQVPGL; listed as Homo sapiens) [compound 502],“+++” (≥50 = +++)
19,503 (SLNHFTHSV; listed as Homo sapiens) [compound 503],“+++” (≥50 = +++)
20,504 (GLSDGNPSL; listed as Homo sapiens) [compound 504],“++” (≥20% = ++)
21,505 (SLAPGDVVRQV; listed as Homo sapiens) [compound 505],“++” (≥20% = ++)
22,506 (KLLGKVETA; listed as Homo sapiens) [compound 506],“+++” (≥50 = +++)

row,Substance,"Peptide exchange (MHC class I binding score, peptide exchange yield)"
1,507 (KLIDDQDISISL; listed as Homo sapiens) [compound 507],“+++” (≥50 = +++)
2,508 (ILAQEQLVVGV; listed as Homo sapiens) [compound 508],“+++” (≥50 = +++)
3,509 (FLFDTKPLIV; listed as Homo sapiens) [compound 509],“+++” (≥50 = +++)
4,510 (KLYSVVSQL; listed as Homo sapiens) [compound 510],“++” (≥20% = ++)
5,511 (FLDPYCSASV; listed as Homo sapiens) [compound 511],“++” (≥20% = ++)
6,512 (SLSEIVPCL; listed as Homo sapiens) [compound 512],“+++” (≥50 = +++)
7,513 (SLWPSPEQL; listed as Homo sapiens) [compound 513],“++” (≥20% = ++)
8,514 (ILVDWLVQV; listed as Homo sapiens) [compound 514],“+++” (≥50 = +++)
9,515 (LLQELVLFL; listed as Homo sapiens) [compound 515],“+++” (≥50 = +++)
10,516 (AVGPASILKEV; listed as Homo sapiens) [compound 516],“++” (≥20% = ++)
11,517 (LLMPIPEGLTL; listed as Homo sapiens) [compound 517],“+++” (≥50 = +++)
12,518 (KLNAEVACV; listed as Homo sapiens) [compound 518],“+++” (≥50 = +++)
13,519 (GLLHLTLLL; listed as Homo sapiens) [compound 519],“+++” (≥50 = +++)
14,520 (LAVHPSGVAL; listed as Homo sapiens) [compound 520],“+” (≥10% = +)
15,521 (MLLTKLPTI; listed as Homo sapiens) [compound 521],“+++” (≥50 = +++)
16,522 (TLWYRSPEV; listed as Homo sapiens) [compound 522],“++” (≥20% = ++)
17,523 (YQIPRTFTL; listed as Homo sapiens) [compound 523],“++” (≥20% = ++)
18,524 (ALIENLTHQI; listed as Homo sapiens) [compound 524],“++” (≥20% = ++)
19,525 (VLLEAGEGLVTI; listed as Homo sapiens) [compound 525],“+++” (≥50 = +++)
20,526 (RLAEVGQYEQV; listed as Homo sapiens) [compound 526],“++” (≥20% = ++)
21,527 (FLLEPGNLEV; listed as Homo sapiens) [compound 527],“++++” (≥75% = ++++)
22,528 (SVAEGRALMSV; listed as Homo sapiens) [compound 528],“+++” (≥50 = +++)
